Results published in PMC10786891, “Massively parallel profiling of RNA-targeting CRISPR-Cas13d”.

T1: EsCas13d, nuclease-dead (Eubacterium siraeum, UniProt B0MS50, R295A;H300A;R849A;H854A)
T1 sequence: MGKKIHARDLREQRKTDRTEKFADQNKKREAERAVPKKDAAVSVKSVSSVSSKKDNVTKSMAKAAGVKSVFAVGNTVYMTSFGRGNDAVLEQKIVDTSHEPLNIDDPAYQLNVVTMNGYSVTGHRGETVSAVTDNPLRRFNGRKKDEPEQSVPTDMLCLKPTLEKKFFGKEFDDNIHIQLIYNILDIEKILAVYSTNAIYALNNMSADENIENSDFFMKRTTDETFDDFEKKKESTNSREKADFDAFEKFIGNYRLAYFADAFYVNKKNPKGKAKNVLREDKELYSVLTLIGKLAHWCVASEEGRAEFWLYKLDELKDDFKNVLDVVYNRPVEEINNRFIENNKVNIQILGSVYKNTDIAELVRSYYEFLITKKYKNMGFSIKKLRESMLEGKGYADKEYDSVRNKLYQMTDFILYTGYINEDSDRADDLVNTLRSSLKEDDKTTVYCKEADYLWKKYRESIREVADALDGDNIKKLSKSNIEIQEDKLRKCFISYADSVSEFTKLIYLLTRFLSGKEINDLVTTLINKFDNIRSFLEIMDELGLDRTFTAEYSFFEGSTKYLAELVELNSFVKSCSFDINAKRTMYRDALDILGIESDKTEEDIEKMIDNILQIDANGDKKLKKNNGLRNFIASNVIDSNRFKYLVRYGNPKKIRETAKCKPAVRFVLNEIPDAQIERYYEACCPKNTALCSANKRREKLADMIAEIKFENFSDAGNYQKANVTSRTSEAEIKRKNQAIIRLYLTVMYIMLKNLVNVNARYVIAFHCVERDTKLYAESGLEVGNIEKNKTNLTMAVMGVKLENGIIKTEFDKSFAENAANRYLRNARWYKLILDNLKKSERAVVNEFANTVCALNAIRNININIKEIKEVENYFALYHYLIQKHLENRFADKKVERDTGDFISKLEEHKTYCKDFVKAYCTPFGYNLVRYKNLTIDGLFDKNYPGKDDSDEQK

B1: target 1 insA 3' of 22,insU 3' of 20 (mixed)
RNA 1: CACCCGUGCAAAAAUGCAGGGGUCUAAAACUGAGCGGAUAACCUCUCUAUGG
RNA 2: GGGAAUGGAUCCACAUCUACGAAUUCGUACACAUUAGAGAGGUUAUCCGCUCACCGAGAUCGGAAGAGCACACGU
B2: target 1 C4A,U19G (mixed)
RNA 1: CACCCGUGCAAAAAUGCAGGGGUCUAAAACUGAGCGGAUAACCUCUCUAUGG
RNA 2: GGGAAUGGAUCCACAUCUACGAAUUCGUACCAGAGAGAGGUUAUCCGAUCACCGAGAUCGGAAGAGCACACGU
B3: target 1 insG 3' of 6,insU 3' of 6 (mixed)
RNA 1: CACCCGUGCAAAAAUGCAGGGGUCUAAAACUGAGCGGAUAACCUCUCUAUGG
RNA 2: GGGAAUGGAUCCACAUCUACGAAUUCGUACCAUAGAGAGGUUAUCCGUGCUCACCGAGAUCGGAAGAGCACACGU
B4: target 1 U3C,C7G (mixed)
RNA 1: CACCCGUGCAAAAAUGCAGGGGUCUAAAACUGAGCGGAUAACCUCUCUAUGG
RNA 2: GGGAAUGGAUCCACAUCUACGAAUUCGUACCAUAGAGAGGUUAUGCGCCCACCGAGAUCGGAAGAGCACACGU
B5: target 1 C2U,U19C (mixed)
RNA 1: CACCCGUGCAAAAAUGCAGGGGUCUAAAACUGAGCGGAUAACCUCUCUAUGG
RNA 2: GGGAAUGGAUCCACAUCUACGAAUUCGUACCACAGAGAGGUUAUCCGCUUACCGAGAUCGGAAGAGCACACGU
B6: target 1 C7U,U10C (mixed)
RNA 1: CACCCGUGCAAAAAUGCAGGGGUCUAAAACUGAGCGGAUAACCUCUCUAUGG
RNA 2: GGGAAUGGAUCCACAUCUACGAAUUCGUACCAUAGAGAGGUCAUUCGCUCACCGAGAUCGGAAGAGCACACGU
B7: target 1 insU 3' of 18,insG 3' of 2 (mixed)
RNA 1: CACCCGUGCAAAAAUGCAGGGGUCUAAAACUGAGCGGAUAACCUCUCUAUGG
RNA 2: GGGAAUGGAUCCACAUCUACGAAUUCGUACCAUAUGAGAGGUUAUCCGCUCGACCGAGAUCGGAAGAGCACACGU
B8: target 1 insU 3' of 15,insC 3' of 8 (mixed)
RNA 1: CACCCGUGCAAAAAUGCAGGGGUCUAAAACUGAGCGGAUAACCUCUCUAUGG
RNA 2: GGGAAUGGAUCCACAUCUACGAAUUCGUACCAUAGAGUAGGUUAUCCCGCUCACCGAGAUCGGAAGAGCACACGU
B9: target 1 U10A,A16G (mixed)
RNA 1: CACCCGUGCAAAAAUGCAGGGGUCUAAAACUGAGCGGAUAACCUCUCUAUGG
RNA 2: GGGAAUGGAUCCACAUCUACGAAUUCGUACCAUAGGGAGGUAAUCCGCUCACCGAGAUCGGAAGAGCACACGU
B10: target 1 C6A,A20U (mixed)
RNA 1: CACCCGUGCAAAAAUGCAGGGGUCUAAAACUGAGCGGAUAACCUCUCUAUGG
RNA 2: GGGAAUGGAUCCACAUCUACGAAUUCGUACCUUAGAGAGGUUAUCAGCUCACCGAGAUCGGAAGAGCACACGU
B11: target 1 insU 3' of 14,insG 3' of 6 (mixed)
RNA 1: CACCCGUGCAAAAAUGCAGGGGUCUAAAACUGAGCGGAUAACCUCUCUAUGG
RNA 2: GGGAAUGGAUCCACAUCUACGAAUUCGUACCAUAGAGAUGGUUAUCCGGCUCACCGAGAUCGGAAGAGCACACGU
B12: target 1 C4U,U8A (mixed)
RNA 1: CACCCGUGCAAAAAUGCAGGGGUCUAAAACUGAGCGGAUAACCUCUCUAUGG
RNA 2: GGGAAUGGAUCCACAUCUACGAAUUCGUACCAUAGAGAGGUUAACCGUUCACCGAGAUCGGAAGAGCACACGU
B13: target 1 insA 3' of 21,insG 3' of 14 (mixed)
RNA 1: CACCCGUGCAAAAAUGCAGGGGUCUAAAACUGAGCGGAUAACCUCUCUAUGG
RNA 2: GGGAAUGGAUCCACAUCUACGAAUUCGUACCAAUAGAGAGGGUUAUCCGCUCACCGAGAUCGGAAGAGCACACGU

These binders were tested against T1, EsCas13d, nuclease-dead (assay: crRNA (strand 1, pre-loaded); Mg2+; 40 mM Tris-HCl pH 7.5, 150 mM NaCl, 6 mM MgCl2, 1 mM DTT, 0.1% Tween-20, 0.2 mg/ml BSA; 25 C; 10 min per concentration, then washed). Details: tags: His6-TwinStrep-SUMO cleaved; N-terminal SNAP kept (SNAP-Surface 488); label: 3' end held by stalled T7 RNA polymerase.

**Q.** B1 was tested. Which Kd did it give?
**A.** The Kd was 16.7 ± 1 nM.

**Q.** Which Kd does the source give for B2 here?
**A.** Its Kd is 49 ± 19 nM.

**Q.** How did the Kd turn out when B3 was run?
**A.** The Kd was 9.9 ± 0.7 nM.

**Q.** For B4, which Kd is on record?
**A.** Its Kd is 8.47 ± 0.27 nM.

**Q.** For B5, which Kd is on record?
**A.** The Kd was 21.2 ± 1.5 nM.

**Q.** With B6 as the binder, how does the Kd read?
**A.** Its Kd is 20.9 ± 1.5 nM.

**Q.** B7 was tested. Which Kd did it give?
**A.** The Kd was 26.4 ± 1.7 nM.

**Q.** Which Kd does the source give for B8 here?
**A.** Its Kd is 42 ± 6 nM.

**Q.** With B9 as the binder, how does the Kd read?
**A.** Its Kd is 38.4 ± 2.1 nM.

**Q.** How did the Kd turn out when B10 was run?
**A.** The Kd was 35.2 ± 2.1 nM.

**Q.** How did the Kd turn out when B11 was run?
**A.** Its Kd is 40 ± 6 nM.

**Q.** For B12, which Kd is on record?
**A.** The Kd was 19 ± 1.1 nM.

**Q.** For B13, which Kd is on record?
**A.** The Kd was 23.8 ± 2.3 nM.
